Measurements: article doi:10.1101/2023.11.26.568713v1

Assays:
[1] = substrate: O=CC(=O)O; experiment: purified protein, by the assay type; conditions: pH 7.6; 30.0 °C
[2] = substrate: O=CC(=O)O; experiment: purified protein, by the assay type; conditions: pH 7.6; 30.0 °C; remark: listed apart in the source

Row | Protein | Km [1] [µM] | Km [2] [µM]
1 | BhcA (Paracoccus denitrificans PD1222) (protein) MTSQNPIFIPGPTNIPEEMRKAVDMPTIDHRSPVFGRMLHPALEGVKKVLKTTQAQVFLFPSTGTGGWETAITNTLSPGDKVLAARNGMFSHRWIDMCQRHGLDVTFVETPWGEGVPADRFEEILTADKGHEIRVVLATHNETATGVKSDIAAVRRALDAAKHPALLFVDGVSSIGSMDFRMDEWGVDIAVTGSQKGFMLPPGLAIVGFSPKAMEAVETARLPRTFFDIRDMATGYARNGYPYTPPVGLINGLNASCERILAEGLENVFARHHRIASGVRAAVDAWGLKLCAVRPELYSDSVSAIRVPEGFDANLIVSHALETYDMAFGTGLGQVAGKVFRIGHLGSLTDAMALSGIATAEMVMADLGLPIQLGSGVAAAQEHYRQTTAAAQKKAA | 140 ± 20 | 190 ± 20
2 | GGT1 (Arabidopsis thaliana) (protein) MALKALDYDTLNENVKKCQYAVRGELYLRASELQKEGKKIIFTNVGNPHALGQKPLTFPRQVVALCQAPFLLDDPNVGMLFPADAIARAKHYLSLTSGGLGAYSDSRGLPGVRKEVAEFIQRRDGYPSDPELIFLTDGASKGVMQILNCVIRGNGDGILVPVPQYPLYSATISLLGGTLVPYYLDESENWGLDVANLRQSVAQARSQGITVRAMVIINPGNPTGQCLSEANIREILKFCYNEKLVLLGDEVYQQNIYQDERPFISSKKVLMEMGSPFSKEVQLVSFHTVSKGYWGECGQRGGYFEMTNLPPRVVEEIYKVASIALSPNVSAQIFMGLMVNPPKPGDISYDQFARESKGILESLRRRARLMTDGFNSCKNVVCNFTEGAMYSFPQIRLPTGALQAAKQAGKVPDVFYCLKLLEATGISTVPGSGFGQKEGVFHLRTTILPAEDEMPEIMDSFKKFNDEFMTQYDNNFGYSKM | 330 ± 30 | –
